From the DeepSol protein solubility set

test: soluble on expression in E. coli; label from the status in PepcDB or PDB records

Row | Sequence | soluble on expression in E. coli
1 | MTTRTRILTGITTTGTPHLGNYAGAIRPAIVASRDSNADSFYFLADYHALIKCDDPLRIQRSRQEIAATWLAGGLDVERVTFYRQSDIPEIPELTWLLTCVAAKGLLNRAHAYKASVDKNVEAGEDPDAGITMGLYSYPVLMAADILMFNAHKVPVGRDQIQHVEMARDIGQRFNHLFGQGKEFFTMPEALIEESVATLPGLDGRKMSKSYDNTIPLFTSAKDMKDAISRIVTDSKAPGEAKDPDNSHLFTLYQAFSTPAQAAEFRSELLHGLGWGEAKNRLFQLLDAELGEARERYHQLIARPSDLEDILRAGAVKARAVATPFLNELREAVGLRSFAAQVQVAATTKKKAAKAARFISFREDDGSFRFRLLSADGEQLLLSRNFADGKAAGAVTKQLQSGQELDLRTEGNAFGIWLDGACVADSPDFADASARDAAVDALRIALTPAQDLEHHHHHH | soluble
2 | MTTYTFDQVEEAIEQLYPDFTINTIEISGEGNDCIAYEINGNFIFKFPKHSRASINLLNEVTVLKTIHNELSLPIPEVVFTGMPSEMCQMSFAGFTKIKGVPLTPLLLKNLPKQSQDQAAKDLARFLSELHSINISGFKSNLVLDFREKINEDNKKIKKLLSRELKGHQMKKVDDFYRDILDNEIYFKYYPCLIHNDFSSDHILFDTEKNTICGIIDFGDAAISDPDNDFISLMEDDEEYGMEFVSKILNHYKHKDIPTVLEKYMMKEKYWSFEKIIYGKEYGYMDWYEEGLNEIRSIKIK | soluble
3 | MTVLAQLYYKYGTMNSGKTIEILKVAHNYEEQGKPVVIMTSSLDTRDGFGVVASRIGMRREAVTITDDMDIFAYIENMFKKPYCILIDESQFLSQKNVYDLARIVDELDVPVMAFGLKNDFQNHLFEGSRELLLLADKIEEIKTICQFCSKKATMVLRTENGRPVYKGNQIQIGGNETYIPVCRRHYFHPPIKALEHHHHHH | not soluble
4 | MTVLVVRHGTAGSKAHFSGDDSKRPLDKRGRAQAEALVPQLLAFGATDVYAADRVRCHQTMEPLAAELNVTIHNEPTLTEESYANNPKRGRHRVLQIVEQVGTPVICTQGKVIPDLITWWCERDGVHPDKSRNRKGSTWVLSLSAGRLVTADHLEHHHHHH | not soluble
5 | MTWEFENPLFVNSSGTAVGPKEKEGPLGHLFDKSYDEMHCNQKNWEMAERKLMEDAVQSALSKQNLKKEDIDIFLAGDLLNQNVTANYVARHLKIPFLCLFGACSTSMESIAISSALIDGGFAKRALAATSSHNATAERQFRYPTEYGGQKPGTATSTVTGSGAVVLSQQPGGIKITSATVGRVIDLGITDSQDMGSAMAPAAADTIKQHLEDLGRTPDDYDLILTGDLSGVGSPILKDLLKEEGINVGTKHNDCGLMIYTPDQQVFAGGSGCACSAVVTFAHIFKEIEAGRLNRVLVVATGALLSPTIIQQKESIPCIAHGVVFERAERGNALEHHHHHH | not soluble
6 | MTWFIDRRLNGKNKSMVNRQRFLRRYKAQIKQSISEAINKRSVTDVDSGESVSIPTEDISEPMFHQGRGGLRHRVHPGNDHFVQNDRIERPQGGGGGSGSGQGQASQDGEGQDEFVFQISKDEYLDLLFEDLALPNLKQNQQRQLTEYKTHRAGYTANGVPANISVVRSLQNSLARRTAMTAGKRRELHALEENLAIISNSEPAQLLEEERLRKEIAELRAKIERVPFIDTFDLRYKNYEKRPDPSSQAVMFCLMDVSGSMDQSTKDMAKRFYILLYLFLSRTYKNVEVVYIRHHTQAKEVDEHEFFYSQETGGTIVSSALKLMDEVVKERYNPAQWNIYAAQASDGDNWADDSPLCHEILAKKLLPVVRYYSYIEITRRAHQTLWREYEHLQSTFDNFAMQHIRDQDDIYPVFRELFHKQNATAKGLEHHHHHH | not soluble
7 | MTYDYVIVGGGIVGVSTGWQLKRRYPEKSVLLIEKEAGFSRHQTGHNSGVIHAGVYYAPGSLKADFCKRGVERTLAFCAQHNIPVENCGKLLVATNEQELERMHALYDRCLQNQIDVEKLDAAQLKLAEPNIRGLGAILVKATSIVNYRLVTEKMAEAFMQLGGDVKIGTEVVGLEETPSSITLTCQQKNQRVSYQAKFLVTCSGLMADRLTKMLGLPTDFQIIPYRGEYYRLAPKHNQVVRHLIYPIPDPELPFLGVHLTRMIDGCVTVGPNAVQGFKREGYGKWNVSLRDVWEMVCFPGFWKVSAKHFKTGMVEMKNSWWKAGYLQLVRKYCPSIELTDLEPYPAGIRAQAVLSDGTLVHDFLFAESPRSLHVCNAPSPAATSAMPIGEYLCDKIAEKSLALEHHHHHH | soluble
8 | MTYRIKKWQKLSTITLLMAGVITLNGGEFRSVDKHQIAVADTNVQTPDYEKLRNTWLDVNYGYDKYDENNPDMKKKFDATEKEATNLLKEMKTESGRKYLWSGAETLETNSSHMTRTYRNIEKIAEAMRNPKTTLNTDENKKKVKDALEWLHKNAYGKEPDKKVKELSENFTKTTGKNTNLNWWDYEIGTPKSLTNTLILLNDQFSNEEKKKFTAPIKTFAPDSDKILSSVGKAELAKGGNLVDISKVKLLECIIEEDKDMMKKSIDSFNKVFTYVQDSATGKERNGFYKDGSYIDHQDVPYTGAYGVVLLEGISQMMPMIKETPFNDKTQNDTTLKSWIDDGFMPLIYKGEMMDLSRGRAISRENETSHSASATVMKSLLRLSDAMDDSTKAKYKKIVKSSVESDSSYKQNDYLNSYSDIDKMKSLMTDNSISKNGLTQQLKIYNDMDRVTYHNKDLDFAFGLSMTSKNVARYESINGENLKGWHTGAGMSYLYNSDVKHYHDNFWVTADMKRLSGTTTLDNEILKDTDDKKSSKTFVGGTKVDDQHASIGMDFENQDKTLTAKKSYFILNDKIVFLGTGIKSTDSSKNPVTTIENRKANGYTLYTDDKQTTNSDNQENNSVFLESTDTKKNIGYHFLNKPKITVKKESHTGKWKEINKSQKDTQKTDEYYEVTQKHSNSDNKYGYVLYPGLSKDVFKTKKDEVTVVKQEDDFHVVKDNESVWAGVNYSNSTQTFDINNTKVEVKAKGMFILKKKDDNTYECSFYNPESTNSASDIESKISMTGYSITNKNTSTSNESGVHFELTK | not soluble
9 | MVAASEGNVVIEVDMANGWRGNASGSTSHSGITYSADGVTFAALGDGVGAVFDIARPTTLEDAVIAMVVNVSAEFKASEANLQIFAQLKEDWSKGEWDCLAASSELTADTDLTLTCTIDEDDDKFNQTARDVQVGIQAKGTPAGTITIKSVTITLAQEAYSANVDHLRDLAPSDFPIGVAVSNTDSATYNLLTNSREQAVVKKHFNHLTAGNIMKMSYMQPTEGNFNFTNADAFVDWATENNMTVHGHALVWHSDYQVPNFMKNWAGSAEDFLAALDTHITTIVDHYEAKGNLVSWDVVNAAIDDNSPANFRTTDSAFYVKSGNSSVYIERAFQTARAADPAVILYYNDYNIEQNNAKTTKMVDMVKDFQARSIPIDGVGFQMHVCMNYPSIANISAAMKKVVDLGLLVKITELDVAVNQPHCDAYPANKINPLTEAAQLAQKKRYCDVVKAYLDTVPVNQRGGISVWGTTDANTWLDGLYREQFEDEKISWPLLFDNNYNDKPALRGFADALIGTQCTNTHELHHHHHH | soluble
10 | MVADLMLCTNFFIFTGGPGSGKTAVLNELNTWGYLTVSEVARSIIQKQQADGGDAIHTGNRKAFRDLMLEQSIADYCKMQSEEKIVFFDRGIPDLYGYSKAFCGEASKEVNEAVGRFRYNKTVFIFPPWPEIYENDDERQQDYQEALQTYYAVKEGYFDCGYVLLEVPKCPIKDRANFIFQMISKNGLEHHHHHH | soluble
11 | MVAGLTNGELIAPMTYEETMTSDFFEAWFQKFLLPTLTTPSVIIMDNARFHRMGKLELLCEEFGYKLLPLPPYSPEYNPIEKTWAHIKKHLKKVLPSCNTFYEALLSCSCFNLEHHHHHH | not soluble
12 | MVCVSFPLFPEREADLCQRLVHLLDELRHHFVEIGHVLRIPLNDDVVNAFAFHARVVVCKEPCVFSGHPHAVLHLGHVRRLDGFETAKAEFHEVAGGERAFKLKAEPVTAQAVRGAGGAHALVTEQDRRLRDFHVSGELEEGAGVFFVLLAPGQRLGVNLWRYTGAYLGEQGVEVGHFHVCPFAARSRLGNDVVSVRGSNNSEP | not soluble
13 | MVDQAQDTLRPNNRLSDMQATMEQTQAFENRVLERLNAGKTVRSFLITAVELLTEAVNLLVLQVFRKDDYAVKYAVEPLLDGDGPLGDLSVRLKLIYGLGVINRQEYEDAELLMALREELNHDGNEYAFTDDEILGPFGELHCVAALPPPPQFEPADSSLYAMQIQRYQQAVRSTMVLSLTELISKISLKKAFQK | soluble
14 | MVEDILAPGLRVVFCGINPGLSSAGTGFPFAHPANRFWKVIYQAGFTDRQLKPQEAQHLLDYRCGVTKLVDRPTVQANEVSKQELHAGGRKLIEKIEDYQPQALAILGKQAYEQGFSQRGAQWGKQTLTIGSTQIWVLPNPSGLSRVSLEKLVEAYRELDQALVVRGR | soluble
